Experimental data: paper PMC5070119

What was measured:
[1] = biological target: cytosolic purine 5'-nucleotidase (cN-II) R238W, C-terminally truncated (human) (UniProt P49902); assay: SEC; Superdex 200 10/300 GL, 50 mM sodium phosphate pH 7.4, 100 mM NaCl, 2 mM TCEP; 200 ul of 0.5 mg/ml protein; calibrated with high molecular weight standards
[2] = biological target: cytosolic purine 5'-nucleotidase (cN-II) R238W, C-terminally truncated (human) (UniProt P49902); assay: SAXS; truncated proteins 0.25 to 2 mg/ml in 50 mM sodium phosphate pH 7.4, 100 mM NaCl, 2 mM TCEP, 5 % glycerol; BM29 beamline ESRF; Guinier approximation, P(r), Porod volume
[3] = biological target: cytosolic purine 5'-nucleotidase (cN-II) L375F, C-terminally truncated (human) (UniProt P49902); assay: SEC; Superdex 200 10/300 GL, 50 mM sodium phosphate pH 7.4, 100 mM NaCl, 2 mM TCEP; 200 ul of 0.5 mg/ml protein; calibrated with high molecular weight standards
[4] = biological target: cytosolic purine 5'-nucleotidase (cN-II) L375F, C-terminally truncated (human) (UniProt P49902); assay: SAXS; truncated proteins 0.25 to 2 mg/ml in 50 mM sodium phosphate pH 7.4, 100 mM NaCl, 2 mM TCEP, 5 % glycerol; BM29 beamline ESRF; Guinier approximation, P(r), Porod volume
[5] = biological target: cytosolic purine 5'-nucleotidase (cN-II) R367Q, C-terminally truncated (human) (UniProt P49902); assay: SEC; Superdex 200 10/300 GL, 50 mM sodium phosphate pH 7.4, 100 mM NaCl, 2 mM TCEP; 200 ul of 0.5 mg/ml protein; calibrated with high molecular weight standards
[6] = biological target: cytosolic purine 5'-nucleotidase (cN-II) R367Q, C-terminally truncated (human) (UniProt P49902); assay: SAXS; truncated proteins 0.25 to 2 mg/ml in 50 mM sodium phosphate pH 7.4, 100 mM NaCl, 2 mM TCEP, 5 % glycerol; BM29 beamline ESRF; Guinier approximation, P(r), Porod volume
[7] = biological target: cytosolic purine 5'-nucleotidase (cN-II), C-terminally truncated wild type (human) (UniProt P49902); assay: SEC; Superdex 200 10/300 GL, 50 mM sodium phosphate pH 7.4, 100 mM NaCl, 2 mM TCEP; 200 ul of 0.5 mg/ml protein; calibrated with high molecular weight standards
[8] = biological target: cytosolic purine 5'-nucleotidase (cN-II), C-terminally truncated wild type (human) (UniProt P49902); assay: SAXS; truncated proteins 0.25 to 2 mg/ml in 50 mM sodium phosphate pH 7.4, 100 mM NaCl, 2 mM TCEP, 5 % glycerol; BM29 beamline ESRF; Guinier approximation, P(r), Porod volume

Substance “cytosolic purine 5'-nucleotidase (cN-II) R238W, C-terminally truncated (from UniProt P49902 1-536) (enzyme)” has a stoichiometry N [1] of 4 and a stoichiometry N [2] of 4.

Substance “cytosolic purine 5'-nucleotidase (cN-II) L375F, C-terminally truncated (from UniProt P49902 1-536) (enzyme)” has a stoichiometry N [3] of 4 and a stoichiometry N [4] of 4.

Work on “cytosolic purine 5'-nucleotidase (cN-II) R367Q, C-terminally truncated (from UniProt P49902 1-536) (enzyme)” yielded a stoichiometry N [5] of 4 and a stoichiometry N [6] of 4.

Work on “cytosolic purine 5'-nucleotidase (cN-II), C-terminally truncated wild type (from UniProt P49902 1-536) (enzyme)” yielded a stoichiometry N [7] of 4 and a stoichiometry N [8] of 4.
